From publication PMC4156411

Key:
Assay in all cases: ELASA
Conditions in all cases: ELASA: VLPs 3 ug/ml coated, blocked with 5% skim milk in PBST plus unrelated DNA, 1 uM biotinylated aptamer (10 nM-2 uM for Kd), 1 h at RT, PBST washes
[1] = test system: GI.4 VLP, major capsid protein (Human norovirus GI.4)
[2] = test system: GI.6 VLP, major capsid protein (Human norovirus GI.6)
[3] = test system: GI.7 VLP, major capsid protein (Human norovirus GI.7)
[4] = test system: GI.8 VLP, major capsid protein (Human norovirus GI.8)
[5] = test system: GII.1 VLP, major capsid protein (Human norovirus GII.1)
[6] = test system: GII.12 VLP, major capsid protein (Human norovirus GII.12)
[7] = test system: GII.17 VLP, major capsid protein (Human norovirus GII.17)
[8] = biological target: T1, GII.2 (SMV) VLP, major capsid protein (Human norovirus GII.2 (Snow Mountain virus)) (UniProt K7X601)
T1 sequence: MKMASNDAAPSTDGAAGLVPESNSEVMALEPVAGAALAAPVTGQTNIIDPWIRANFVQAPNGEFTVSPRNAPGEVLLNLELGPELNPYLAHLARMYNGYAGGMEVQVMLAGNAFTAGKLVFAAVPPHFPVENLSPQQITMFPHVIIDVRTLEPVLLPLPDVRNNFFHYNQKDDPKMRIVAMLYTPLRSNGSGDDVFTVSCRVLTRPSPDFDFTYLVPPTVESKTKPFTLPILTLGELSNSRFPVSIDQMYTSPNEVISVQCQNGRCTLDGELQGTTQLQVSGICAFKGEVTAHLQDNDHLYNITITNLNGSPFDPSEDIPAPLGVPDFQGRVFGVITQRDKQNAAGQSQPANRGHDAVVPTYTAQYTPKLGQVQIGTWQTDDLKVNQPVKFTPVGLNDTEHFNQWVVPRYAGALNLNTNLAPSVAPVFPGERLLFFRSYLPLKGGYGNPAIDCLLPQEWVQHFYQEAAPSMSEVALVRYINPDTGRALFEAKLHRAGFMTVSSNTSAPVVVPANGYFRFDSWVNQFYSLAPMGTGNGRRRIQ

[9] = test system: GII.3 VLP, major capsid protein (Human norovirus GII.3)
[10] = test system: GII.4 (Grimsby) VLP, major capsid protein (Human norovirus GII.4 (Grimsby virus))
[11] = test system: GII.4 (Houston) VLP, major capsid protein (Human norovirus GII.4 (Houston))
[12] = test system: GII.6 VLP, major capsid protein (Human norovirus GII.6)
[13] = test system: GII.7 VLP, major capsid protein (Human norovirus GII.7)

Question: How did the binding signal [1] turn out when “AGTATACGTATTACCTGCAGCTGACCGAGTGTCTGGTCATTTTCGATGTCTGTTGTTAGGCCGATATCTCGGAGATCTTGC [SMV-26]” was run?
Answer: 1.1 T/N ratio

Question: What about the binding signal [2] of the same sequence?
Answer: 1.5 T/N ratio

Question: And the binding signal [3]?
Answer: 1.8 T/N ratio

Question: What about the binding signal [4] of the same sequence?
Answer: 1.2 T/N ratio

Question: What about the binding signal [5] of the same sequence?
Answer: 2.1 T/N ratio

Question: And the binding signal [6]?
Answer: 2.4 T/N ratio

Question: What about the binding signal [7] of the same sequence?
Answer: 1.3 T/N ratio

Question: And the Kd [8]?
Answer: 281 nM

Question: And the binding signal [8]?
Answer: 4.1 T/N ratio

Question: What about the binding signal [9] of the same sequence?
Answer: 2.4 T/N ratio

Question: What about the binding signal [10] of the same sequence?
Answer: 3.2 T/N ratio

Question: And the binding signal [11]?
Answer: 2.8 T/N ratio

Question: What about the binding signal [12] of the same sequence?
Answer: 2.8 T/N ratio

Question: And the binding signal [13]?
Answer: 2.8 T/N ratio

Question: What does the source list for “AGTATACGTATTACCTGCAGCCACCAGTGTGTTGAGGTTTGAGCACACTGATAGAGTGTCACGATATCTCGGAGATCTTGC [SMV-19]”?
Answer: binding signal [1]: 1.7 T/N ratio; binding signal [2]: 3.7 T/N ratio; binding signal [3]: 10.3 T/N ratio; binding signal [4]: 1.7 T/N ratio; binding signal [5]: 7.1 T/N ratio; binding signal [6]: 1.5 T/N ratio; binding signal [7]: 3 T/N ratio; Kd [8]: 191 nM; binding signal [8]: 12.9 T/N ratio; binding signal [9]: 1.7 T/N ratio; binding signal [10]: 9.6 T/N ratio; binding signal [11]: 12.5 T/N ratio; binding signal [12]: 1.8 T/N ratio; binding signal [13]: 4 T/N ratio

Question: Which results are given for “AGTATACGTATTACCTGCAGCCCATGTTTTGTAGGTGTAATAGGTCATGTTAGGGTTTCTGCGATATCTCGGAGATCTTGC [SMV-21]”?
Answer: binding signal [1]: 4.3 T/N ratio; binding signal [2]: 3.8 T/N ratio; binding signal [3]: 8.1 T/N ratio; binding signal [4]: 4.6 T/N ratio; binding signal [5]: 8.6 T/N ratio; binding signal [6]: 6.6 T/N ratio; binding signal [7]: 12.2 T/N ratio; Kd [8]: 101 nM; binding signal [8]: 18.1 T/N ratio; binding signal [9]: 11.8 T/N ratio; binding signal [10]: 6.4 T/N ratio; binding signal [11]: 11.3 T/N ratio; binding signal [12]: 3 T/N ratio; binding signal [13]: 13.5 T/N ratio

Question: Which results are given for “AGTATACGTATTACCTGCAGCCATCTGTGTGAAGACTATATGGCGCTCACATATTTCTTTCCGATATCTCGGAGATCTTGC [SMV-25]”?
Answer: binding signal [1]: 5.6 T/N ratio; binding signal [2]: 2.4 T/N ratio; binding signal [3]: 3.5 T/N ratio; binding signal [4]: 6.2 T/N ratio; binding signal [5]: 9.4 T/N ratio; binding signal [6]: 1.9 T/N ratio; binding signal [7]: 2 T/N ratio; Kd [8]: 232 nM; binding signal [8]: 12.4 T/N ratio; binding signal [9]: 5.4 T/N ratio; binding signal [10]: 10.4 T/N ratio; binding signal [11]: 11 T/N ratio; binding signal [12]: 7.3 T/N ratio; binding signal [13]: 9.1 T/N ratio
